This is an account of results in article PMC12554751 (Frontiers in Immunology, 2025).

This test has as its target T1, Aβ aggregates in human Alzheimer's disease brain (Homo sapiens (endogenous, Alzheimer's …, UniProt P05067)).
T1 construct: Aβ peptide of the amyloid precursor protein, aggregated in patient brain; also called Alzheimer's brain lysates; Aβ plaques; source: endogenous, human Alzheimer's disease brain (hippocampus homogenates; paraffin-embedded frontal cortex sections)
Description: immunostaining of cells or tissue; immunohistochemistry of paraffin-embedded frontal cortex of Alzheimer's disease patients with moderate cerebral amyloid angiopathy; Digoxigenin-tagged antibody applied 1 h; HRP polymer, DAB. To be noted: one partner purified.

B1: 97A34 tagged with Digoxigenin (antibody, V domains shown)
VH: EVQLVESGGGLVQPGGSLRLSCAASGYNIKATYIHWVRQAPGKGLEWVARIYPASGATRYADSVKGRFTISADTSKNTAYLQMNSLRAEDTAVYYCARDGYDGSYFVGYDYNDFYDYWGQGTLVTVSS
VL: DIQMTQSPSSLSASVGDRVTITCRASQNVAYAVTWYQQKPGKAPKLLIYSASFLYSGVPSRFSGSRSGTDFTLTISSLQPEDFATYYCQQHSTYPPTFGQGTKVEIK
notes: heavy chain constant region; light chain constant region; Detected with a Human-on-Human HRP-Polymer kit through mouse anti-Digoxigenin; I surmise the human IgG1 kappa form
Turning to B1, the binding result was “binds”.
